From patent US20190083662A1 (CENTRE FOR PROBE DEVELOPMENT AND COMMERCIALIZATION, published 2019)

B1: [^177Lu]-Compound A-HuMIGF-1R (antibody, V domains shown)
VH: QVQLVQSGAEVVKPGASVKLSCKASGYTFTSYWMHWVKQRPGQGLEWIGEINPSNGRTNYNQKFQGKATLTVDKSSSTAYMQLSSLTSEDSAVYYFARGRPDYYGSSKWYFDVWGQGTTVTVSSASTKGPSVFPLAPSSKSTSGGTAALG
VL: DVVMTQTPLSLPVSLGDPASISCRSSQSIVHSNVNTYLEWYLQKPGQSPRLLIYKVSNRFSGVPDRFSGSGAGTDFTLRISRVEAEDLGIYYCFQGSHVPPTFGGGTKLEIKRTVAAPSVFIFPPSDEQLKSGTASVVCLLNNFYPREAK
notes: Whole antibody HuMIGF-1R (AVE1642, humanized EM164; MALDI m/z about 149835) conjugated with the chelate Compound A (DOTA-GA anhydride) and loaded with 177Lu; also called 177Lu-DOTA-GA-AVE1642; (Compound A)-HuMIGF-1R radiolabelled with Lu-177
B2: [^177Lu]-Compound B-HuMIGF-1R (antibody, V domains shown)
VH: B1 VH
VL: B1 VL
notes: Whole antibody HuMIGF-1R (AVE1642) conjugated with the chelate Compound B (DOTA-GA with an 11-aminoundecanoyl linker, TFP ester) and loaded with 177Lu; also called Compound B-HuMIGF-1R radiolabelled with Lu-177
B3: [^177Lu]-Compound C-HuMIGF-1R (antibody, V domains shown)
VH: B1 VH
VL: B1 VL
notes: Whole antibody HuMIGF-1R (AVE1642) conjugated with the chelate Compound C (DOTA-GA with a PEG3 linker, TFP ester) and loaded with 177Lu; also called Compound C-HuMIGF-1R radiolabelled with Lu-177

Target: T1, insulin-like growth factor-1 receptor (IGF-1R) (human, UniProt P08069 31-1367)
T1 construct: whole, on cells; Endogenous receptor on A431 cells ('IGF-1R expressing A431 cell line'); also called IGF-1 receptor
Test: saturation radioligand binding on A431 cells, 4 C, specific binding fitted to a single-site hyperbola
Description: Nonspecific binding is typically assessed by measuring radioconjugate binding in the presence of a fixed concentration of HumIGF-1R that binds to essentially all the receptors. Since all the receptors are occupied by the HumIGF-1R, the radioconjugate only binds nonspecifically. Kd and Bₘₐₓ values are calculated by nonlinear regression analysis and computerized curve fitting.
The purpose of this assay was to ensure that these new radioconjugates maintained binding characteristics consistent with the native antibody in an IGF-1R expressing A431 cell line. Twenty-four hours prior to the start of the experiment, 1.5×10⁵ A431 cells were seeded in 48-well microplates in 500 μl supplemented medium. The radioconjugate was diluted with binding buffer (PBS+0.5% BSA) to a range of concentrations from 0.08 nM to 40 nM; final assay concentration 0.04 to 20 nM. At the start of the assay, the media is aspirated, discarded and 500 μI of serum-free DMEM was added to each well. The plates were incubated at 37° C. for 1 hour. Following incubation, media was aspirated from each well and discarded. The cells were washed and 100 μI of binding buffer (total binding) or 4 μM cold-antibody (non-specific binding) added to designated wells. Plates were incubated at 4° C. for 1 hour with mild shaking. […] The lysates were transferred to counting tubes and run with radioconjugate standards on the Wizard 1470 gamma counter to determine the radioactivity content (in counts per minute (CPM)) for each lysate. The remaining lysate from each well (25 μI) was transferred to a 96-well plate, and the protein content of each lysate determined using a standard protein quantification assay. Total, non-specific and specific ligand binding determinations, mass of bound conjugate in each lysate were calculated by converting lysate CPM to fmol bound using the specific activity of the conjugate standards and then normalizing the fmol bound to the protein content of each lysate(in milligrams). Specific binding was determined by subtracting the non-specific binding from total binding.

T1 sequence (P08069 31-1367): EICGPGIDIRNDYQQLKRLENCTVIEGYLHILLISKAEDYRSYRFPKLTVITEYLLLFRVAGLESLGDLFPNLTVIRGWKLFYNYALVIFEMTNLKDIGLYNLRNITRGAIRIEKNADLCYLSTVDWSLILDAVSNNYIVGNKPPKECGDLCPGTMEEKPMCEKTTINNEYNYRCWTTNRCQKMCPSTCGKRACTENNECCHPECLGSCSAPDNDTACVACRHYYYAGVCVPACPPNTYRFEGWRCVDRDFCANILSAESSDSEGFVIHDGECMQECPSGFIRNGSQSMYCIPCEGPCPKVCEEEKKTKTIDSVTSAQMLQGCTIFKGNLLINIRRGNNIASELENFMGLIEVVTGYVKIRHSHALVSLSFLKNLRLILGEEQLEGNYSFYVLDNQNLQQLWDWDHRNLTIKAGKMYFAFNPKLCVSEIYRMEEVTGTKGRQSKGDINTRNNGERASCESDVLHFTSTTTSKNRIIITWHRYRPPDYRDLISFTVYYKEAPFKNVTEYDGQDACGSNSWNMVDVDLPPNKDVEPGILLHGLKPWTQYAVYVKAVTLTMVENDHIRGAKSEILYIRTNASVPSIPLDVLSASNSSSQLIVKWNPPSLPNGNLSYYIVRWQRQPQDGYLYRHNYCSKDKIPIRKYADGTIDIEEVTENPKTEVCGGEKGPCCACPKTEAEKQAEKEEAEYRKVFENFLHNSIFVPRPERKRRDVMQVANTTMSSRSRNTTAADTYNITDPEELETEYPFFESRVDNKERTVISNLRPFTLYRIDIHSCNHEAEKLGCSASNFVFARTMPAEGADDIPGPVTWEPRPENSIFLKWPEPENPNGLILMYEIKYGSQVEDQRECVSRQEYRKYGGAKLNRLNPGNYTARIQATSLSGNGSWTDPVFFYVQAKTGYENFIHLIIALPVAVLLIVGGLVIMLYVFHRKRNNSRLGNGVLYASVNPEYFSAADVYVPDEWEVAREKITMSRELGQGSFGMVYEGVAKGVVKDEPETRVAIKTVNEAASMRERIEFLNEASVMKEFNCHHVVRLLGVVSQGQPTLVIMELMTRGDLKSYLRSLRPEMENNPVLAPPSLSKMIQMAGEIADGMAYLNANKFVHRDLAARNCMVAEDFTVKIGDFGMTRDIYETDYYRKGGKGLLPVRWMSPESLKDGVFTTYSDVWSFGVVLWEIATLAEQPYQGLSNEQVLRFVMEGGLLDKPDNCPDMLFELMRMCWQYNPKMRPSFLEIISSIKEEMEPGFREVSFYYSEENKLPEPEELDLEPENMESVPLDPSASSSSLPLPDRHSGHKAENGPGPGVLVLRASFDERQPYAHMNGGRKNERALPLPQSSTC

Row | Binder | Kd
1 | B1 | 2.9 nM
2 | B2 | 2 nM
3 | B3 | 2.2 nM
